Reference: the supplement of paper PMC10567573
± gives the standard deviation.

Assay: protein stability index of a GFP-peptide fusion (GPS, HEK-293T) (PSI 1-6); higher = more stable
Settings: c terminus: a fixed tail appended
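Also: 24-mer peptide tiles fused after GFP, lentivirally expressed, FACS-sorted into six equal bins by GFP/DsRed ratio, decoded by Illumina sequencing, PSI is the read-weighted mean bin number.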

Sequence | protein stability index (treatment: DMSO) | protein stability index (treatment: MLN4924 1 uM, 8 h)
GDWAPPPEGGMEQALAGASSGREL [ZNF263] | 5.35 ± 0.36 | 5.37 ± 0.16
ASFCVETNNGAGFGLSILWVLLFT [SCAMP3] | 2.86 ± 0.71 | 2.99 ± 0.12
RNLDGTLGYLLDKETLRLHPDIFL [ZER1] | 2.13 ± 0.27 | 2.05 ± 0.17
DHKPKLCRLAKGENGYGFHLNAIR [PDZK1] | 2.25 ± 0.24 | 2.36 ± 0.56
WGVFYYFVSALGITAGAHRLWSHR [SCD] | 3.38 ± 0.79 | 2.63 ± 0.62
EKELVFDIDMTDYDDVRRCCSSAD [PRIM1] | 4.73 ± 0.27 | 4.7 ± 0.35
GAFQAQEKELVFDIDMTDYDDVRR [PRIM1] | 4.72 ± 0.4 | 4.71 ± 0.14
FKDEWTQLDMFYRNWALKESFIKA [AASDHPPT] | 2.02 ± 0.16 | 2.22 ± 0.14
LSVLQIAQQDLAPDPDAWLRALGE [FANCE] | 2.81 ± 0.39 | 2.75 ± 0.3
SILRAPAYPLELQGQPDPAPRPGP [MOSPD3] | 4.53 ± 0.28 | 4.39 ± 0.43
GYGRDRDYSDHPSGGSYRDSYESY [RBMX] | 3.91 ± 0.2 | 3.462 ± 0.032
LEGFQAQGHPPSLFPPKAKSNQPK [ATE1] | 5.16 ± 0.19 | 5.19 ± 0.18
LSIRCQHQEQVEDLTASHDAALLE [MTUS2] | 4.66 ± 0.22 | 4.86 ± 0.19
GAAQEALSIQLQPKETQPFPKSEQ [ZNF232] | 5.17 ± 0.25 | 5.22 ± 0.23
TGVPGSPGHIGPPGPTGPKGISGH [EMID1] | 4.33 ± 0.3 | 4.71 ± 0.27
GYRDYGHSRRHESYSRGYSYHDGY [RBMY1A1] | 2.64 ± 0.25 | 2.61 ± 0.45
VRRLQALRLEREEYVLLKALALAN [ESRRA] | 2.18 ± 0.54 | 2.12 ± 0.31

Sequence | protein stability index (treatment: DMSO) | protein stability index (treatment: MLN4924 1 uM, 8 h)
LLVVGGFGSQQSPIDVVEKYDPKT [KLHL12] | 3 ± 0.55 | 3.61 ± 0.33
VSAGGHTLSRPPPAQVPREVLKVQ [TFE3] | 3.95 ± 0.33 | 4.21 ± 0.11
GMLDVADESLTDLEAQPYEAVFLR [P3H4] | 4.02 ± 0.47 | 4.19 ± 0.21
STSYSPLASLPLKADTKGFCNISL [PLAGL1] | 2.38 ± 0.2 | 2.27 ± 0.2
TDDDGQAPEAKDGSSFSGRVFRVT [APMAP] | 4.94 ± 0.24 | 4.74 ± 0.23
EGLLNTYQELLGLSFEQMTDAHVW [NLN] | 2.41 ± 0.32 | 2.49 ± 0.38
DKDRRFVFSYFLATDMISIFEPPV [EFHC1] | 2.38 ± 0.47 | 2.72 ± 0.61
GLEGLEDAPPVELQLLHECSPSQM [FANCE] | 4.77 ± 0.19 | 4.66 ± 0.12
RGSRGAPPPLGPVVPVLVFPPDLV [MOSPD3] | 2.67 ± 0.05 | 2.96 ± 0.22
HHVADAYTSSQKVSPIQIDGAGRT [TOR1AIP2] | 3.53 ± 0.21 | 3.74 ± 0.46
QLHAKIDAAEEEKYDMEVRVQKTS [TNNI2] | 5.27 ± 0.23 | 5.22 ± 0.24
ELKEKEATLCLEFLLQNDANPSIR [ANKRD44] | 3.19 ± 0.096 | 3.25 ± 0.31
HKIKHKHILAKNYFSQVPVLASFI [IQUB] | 2.34 ± 0.37 | 2.32 ± 0.55
RVTVSRASSSRSVRTTRGKRKRVD [LMNB1] | 4.46 ± 0.2 | 4.34 ± 0.1
LPNKQVLGLSKLARIVEIYSRRLQ [GCH1] | 2.31 ± 0.5 | 2.08 ± 0.53
NDALSCEYECRRRMLMKRLDVTVQ [FAM98B] | 2.61 ± 0.24 | 2.78 ± 0.38
